Experimental data published in US20130156786A1.

Columns and labels:
[1] = target: human α2β1 integrin on human platelets (human) (UniProt P17301); test: FACS of human blood platelets, secondary antibody only, without primary antibody (negative control)
[2] = target: macaca fascicularis α2β1 integrin on platelets (macaca fascicularis); test: FACS of macaca blood platelets, secondary antibody only, without primary antibody (negative control)

Sequence of human α2β1 integrin on human platelets (human) (P17301 30-1181 limits assumed, chain 1 of 2): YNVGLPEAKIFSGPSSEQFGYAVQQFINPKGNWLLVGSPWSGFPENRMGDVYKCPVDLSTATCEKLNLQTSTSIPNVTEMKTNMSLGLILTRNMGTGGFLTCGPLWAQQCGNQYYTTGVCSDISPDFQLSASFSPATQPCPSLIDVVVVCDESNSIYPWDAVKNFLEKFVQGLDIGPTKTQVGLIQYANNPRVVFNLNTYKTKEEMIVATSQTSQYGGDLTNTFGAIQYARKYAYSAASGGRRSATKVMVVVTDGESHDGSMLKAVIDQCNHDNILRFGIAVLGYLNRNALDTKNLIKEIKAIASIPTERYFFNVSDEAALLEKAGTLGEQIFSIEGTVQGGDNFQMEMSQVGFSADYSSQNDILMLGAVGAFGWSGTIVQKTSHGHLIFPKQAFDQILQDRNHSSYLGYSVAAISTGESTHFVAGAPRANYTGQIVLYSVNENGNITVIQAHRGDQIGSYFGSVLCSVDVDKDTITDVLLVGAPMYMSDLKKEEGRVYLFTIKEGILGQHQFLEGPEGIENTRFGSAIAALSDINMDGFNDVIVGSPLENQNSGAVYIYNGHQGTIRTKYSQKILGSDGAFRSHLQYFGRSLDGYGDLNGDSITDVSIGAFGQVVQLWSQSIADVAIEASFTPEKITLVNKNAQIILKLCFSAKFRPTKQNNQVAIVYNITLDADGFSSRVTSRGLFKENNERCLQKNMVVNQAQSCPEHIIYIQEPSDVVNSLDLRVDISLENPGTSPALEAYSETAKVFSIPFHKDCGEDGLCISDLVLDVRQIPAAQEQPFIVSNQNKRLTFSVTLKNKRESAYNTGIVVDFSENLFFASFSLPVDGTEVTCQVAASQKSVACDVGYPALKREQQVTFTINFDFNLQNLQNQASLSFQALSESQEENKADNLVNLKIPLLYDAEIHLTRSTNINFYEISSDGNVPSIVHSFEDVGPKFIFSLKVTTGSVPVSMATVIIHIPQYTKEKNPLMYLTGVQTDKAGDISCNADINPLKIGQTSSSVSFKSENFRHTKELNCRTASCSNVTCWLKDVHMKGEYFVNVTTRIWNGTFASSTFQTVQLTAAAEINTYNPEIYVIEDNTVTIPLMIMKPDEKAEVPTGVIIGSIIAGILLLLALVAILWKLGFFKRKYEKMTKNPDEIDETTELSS
Sequence of human α2β1 integrin on human platelets (human) (chain, as listed by the source limits assumed, chain 2 of 2): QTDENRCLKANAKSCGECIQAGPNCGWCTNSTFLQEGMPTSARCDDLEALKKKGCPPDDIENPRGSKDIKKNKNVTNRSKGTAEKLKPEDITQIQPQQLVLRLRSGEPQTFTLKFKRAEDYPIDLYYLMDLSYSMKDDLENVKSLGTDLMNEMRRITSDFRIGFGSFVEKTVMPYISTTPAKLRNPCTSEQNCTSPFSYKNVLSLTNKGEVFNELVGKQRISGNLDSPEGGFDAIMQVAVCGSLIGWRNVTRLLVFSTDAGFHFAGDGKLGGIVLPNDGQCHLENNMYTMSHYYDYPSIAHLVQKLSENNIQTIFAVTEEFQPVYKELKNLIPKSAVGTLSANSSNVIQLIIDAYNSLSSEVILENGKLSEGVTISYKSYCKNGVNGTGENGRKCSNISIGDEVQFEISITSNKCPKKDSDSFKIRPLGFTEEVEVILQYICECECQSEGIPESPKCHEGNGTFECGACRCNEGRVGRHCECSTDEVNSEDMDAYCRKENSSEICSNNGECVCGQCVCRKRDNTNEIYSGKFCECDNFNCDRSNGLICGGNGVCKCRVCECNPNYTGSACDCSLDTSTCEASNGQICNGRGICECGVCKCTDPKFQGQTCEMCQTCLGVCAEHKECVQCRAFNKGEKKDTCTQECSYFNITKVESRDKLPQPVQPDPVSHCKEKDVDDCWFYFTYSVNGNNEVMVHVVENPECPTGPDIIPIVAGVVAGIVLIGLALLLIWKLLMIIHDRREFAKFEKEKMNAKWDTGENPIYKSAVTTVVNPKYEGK

% positives [1]: 0.5%
% positives [2]: 0.6%
Substance: anti mouse-IgG-PE (antibody)
